This data set in a line: label from the status in PepcDB records.
For “MHTEQALHTRIADIVESIILKKVTPDTALISSGLVDSLAAVDITLAVESEYGCSIPAPEIAEHLQSVRTLAGYVAANSQ”, the protein production entry was “failed”.
With “MHTTSGRWGYGLFLALLTALLWGILPIKLKQVLQVVDPITVTWYRLLVSGGLLFAWLAAQRRLPSMRKLAPRGKGLVLVAVLGLMGNYVLYLIGLKLLSPGTAQLVVQIGPVLLLVASVFVFRERFSVGQGMGLLVLLAGFGLFFNQRLEELLTSLGTYTTGVLTILLATSIWVFYALSQKQLLTVWHSQQVMMVIYLSCAALLTPWVHPLEALQLTPVQGWLLLACCLNTLVAYGAFAEALAHWEASRVSATLALTPLVTFVAVALAAWVWPEYVHAEDINALGYVGAVTVVFGSALVALGPSLVTSWRARRERGQRAYSSEG”, the protein production entry is given as “failed”.
As to “MHVQEWLETVPAVSIYALVGLVIGLESLGIPLPGEIVLISAALLSSQHGGINPVILGICATVGAVVGDSIGYAIGRKGGRPLLAWLGNKFPRHFGEGHIATAERSFEKWGMWAVFFGRFVALLRIFAGPLAGVLRMPYWKFLIANVLGGIIWAGGTTAVIYYVGVVAESWLKRFSYLGLVAAVLIGLASMLVIKRKAKKAAAEREAAEPETVPAAD”, the protein production entry was “failed”.
With “MHYRWTLLTLAASLLCVPSASGLAEFGIEGMGVVSTPANEARATLSPDGQRIVWASDRTGGTGGWDLWQAQLRGGRWQDAQPLPINTAQDETTPLFSADGRWLLFASTRPGGAGGSDLYRAPVDAQGAVGPVQSLGAAIDSAGNERAPTLSLDGTRLLFASDGHGGAGGMDLFVAHWDGQAFTAPVALVDINSAADELDAAWLGDGRALVWARGKTDDPSQLLLAICKDGHFVQGSPLPLSFNGPQERTFGAVVDTAKPGELLVTGSARAPRAGQLDIYRMKAPAADGDASCR” the entry was “failed”.
The value for “MHYSYLEPGLHAELAAITPDEAVAHLRNHLGNLLLDPAVTAAYINRLGVLTPEETTPSTRAWLTYLLVRYCDLLPLDLAAQRILAQVTGNAAPHLRDLERCAIPDPIERKLERLGAGEDSERNRAMLLALLHEYPYSPAIMERLMTVELALDIPVGGEWLPSVRPPAGLLRPLHERLFIHAMMQGDTERALQHAAACVPDNPSPHLLNHLAELHARLGDTQQALNLYGASLEADPLQHPVRLRMEALAKPPRAHADALHHRIAICLYSFNKAELLERTLSSLAASQTGEAHILVLLNGCTDDSATRVAAVNERLFNGRLEVIDMPINIGAPAARNWLLAKQTVREADFVAFLDDDVDVPAAWLPRLVGNLEEHPGAGVAGTRVRNPGDVPRLQYLYRNISVARPGLIRLSLDTPTLHHDTGFYDFTRSTTSVMGCCHVFTRRALDEVPAFDLRFSPSQMDDIAHDIDLALAGFDVLYTGDVVCVHHQMSGLGRANATDWKRFGNVAGNDVKFYYRFADRLDALGRLNNLGFMPDMPPALEHHHHHH” was “not failed”; that for “MIAAPFLGLLLGLAALLLLASPWPFLAPLVVVGLFGLALLYRRPGWGLLGICALVPFEGLFKDSAFSGAKLLGASLILIMLFKLLLRQIPDSRLRSNLWRALGPFLLCLLLSMLYSENLLVSLDSLRELAVGLVLFFVTLLIAREVNLLMLCRLLAVSVAITCVIALVSAKYQVGGRAIGLLQDANYFALLIAMAVPPAIFLALRSPHWPVRLFWVGISLTLMAGMTKTDSRSGLLVVLFTIAIGVWHYRDRLKGLRPKHLGFAMFAVAIVIPLGIAVLPAEYVARIQSLSMLKSGAHSADTSLGRRTSYLVVGGQMIRQNPLLGSGLGTFPIHYAQTGFASSFSENMNEPDLFRRAHNTYLELFSELGIPGGLSFVALMLMGLRNFERARQGFLARGQREQADIATHLGLSLLAMAVFLLFLSAPNHKYLWIFLALSSVLRLQAEDAPVPRPAPA” was “failed”; that for “MIALPAWLTDERLSEDIEPLLRQTDNESLERLAAEAQAVTLRRFGRVISLYTPLYLSNFCSSGCVYCGFASDRRSPRRKLDTDEIEKELLAMKALGVSDVLLLTGERTNSVGFDYLRRAVDIAARHMPRVAVEAFPMSVAEYRGLAECGCTGLTIYQETYDPDHYRELHRWGPKQDFLERLETPERAITGGIRSVGIGALLGLSEPVGEALAVLRHARYLCKTYWKAGVTVSFPRIRPQEGGFQPSFTVSDRFLARMIFAFRIGMPDVDLVLSTRESSNFRDGMAGLGITRMSIASRTTVGGYVEKETAGASQFEVSDNRSVEAFCAALRAKDLEPVFKNWDAAYNNPLPAEECT” was “failed”.
For the sequence “MIAMVNDGGLALDRPTAAAIVGLFAGSMYLMTVFGGWVADNWLGQARAIWYGSIIIALGHLSIALTSVFDQSFFYLGLVLIVLGTGLFKTCISVIVGTLYKANDARRDAGFSIFYMGINMGSFIAPLITGLLAKDHGWHLGFGIGGIGMLIALLIFRFMAMPQLQTFNELRQEANSCSKPVVENKNAPKIVFSFLFAVAVVIALTFLGIIHINPVAVATYLTVGISIGIIAYFAYLLLFLNLEQHEKFKIIICFVLLAASALFWSAFEQKPTTFTLFAQDYTDRIVFGFEIPTVWFESINALFIIIFAPVAAWLWAKLGKANKDPSYISKFIIALLFAAGGFLLMSLASHFAIHGGVVSPFWLVGTLFLLTIGELCLSPIGLSTMTKLAPDVIRSQIMGLWFTGTALGNLMAGLIGGQVSADGINHLPSLFMRCVLALVIGAIVLFLLKKPMNKLMDKSTNKVQPDLETI”, the protein production entry is recorded as “failed”.
The value for “MIANNIIPIIFLLIIVYGMFKGRKVYEWFLEGAKEGLMVCVKIFPALLAMMIAIRIFKDANLLNYLNNLLEPIVSLIGLPKDIVPLVLIKPLSGSGALGVYTELINTLGPDTREGLISSVIMGGTETIFYTITVYFGAVGIKKIRHTFWAALMADITAIIMAVLVVSMFFGL” was “failed”; that for “MIARPMVPTADQLATDDLSLSDRSRFWLAALEASGQGVAIADATHPDLILTYVNSAFKKLTGYNAAEALGKSCRFLQGSDRAQPGITTLRQAIRNGQACEVVLRNYRKDGSLFWNQLTIAPITDGQGKVSHYVALQRDITAFKEQEQALQRQGIYDEHSGLPKRQLFLDRLNQALAWSQFSGVPGALLLIDLGLPAHLDGSPSLSPDAEENLEIIANRLQAYVRPHETLAHLNHHQFGLLLLDPDVQLRAEERAHGIQTLIRDRLAGFEGGAHIGIVPLTPETPATVLLQAAEAAAMTARSQQQGHLSLEASAIVAAPEQYSRDRDWQQAIAAGELTLALQPQMGLRNRQLRGFEVQLRWQHPQQGTLLASQLMEHLEQSQHRETVGRWFLDQAGQLLSQWRNSAQFSGLFALSLLPQQWKSPSFIHDLRSLLETYQIPPEQLELDLPAQSLAESAAESWDWVYAVRDLGIGIGLADFGSRSIGLYDLRNLPLTTLKLERRFVRGLPDDANDRAIVRGVVAMSQALKVRIVARGVDTVDQAKFLARAECDAMQGLAYSAPLTIEEALQVARSPQAPAW” was “failed”; that for “MICCLGPRGSYSEKAAVTFSKAINDSEIQFEDSIYNVFKAVETNPEFFGVVPSENSIGGSVSITQDLLLEFPVKILGEVDISINHCLLGYDIKKVTEVLAHPQALAQCGHYITKNNWNITPVDSNAKAAKIVSEEKDEKLAAICGVENAEIYGLNVLDEYIQDFKNNTTRFFLICNKNK” was “failed”.
The value for “MICCLNPDCLNPLNPDGKKSCQSCGTTLVPLLRNRFRVVRVLSDEGGFGRTYLSEDKDKLNEPCVIKQLAPKFQGTWSQKKAVELFAEEAKRLQELGEHPQIPTLMAYFEQDNCLYLVQQFINGQNLLKELQQRKNYRPGEIQAILLDLLPVLKFIHDRGVIHRDIKPENIIRCRTDGRLNLIDFGSSKQLTAKVQNFGTSIGSHGYSPLEQIRDGKAYAASDLFALGATCFHLITSVSPFQLWMEHGYSWVSNWRQYLHSPLTPELDFVLDKLLQKDLKHRYTSADEVIKDITPKQPLALPAAGQTSGKIPVPQTTYLSKLPKKYSLLRSVVLLSALVLLFGFSESWFSQYLQIYSSLSARLTQNKSGQVVLAQPQKTTLRTISLANTLPDDENAFVSLAISPNGQIIASCGSDRTIKIWQLATGEDISSLKGHSRKVNAVVFSPDGKTLVSGGDDNTIKIWNLKTGKVIRTITGHSDAVHTLAISPNGKTLVSGSDDNTVKVWNLNTGRLINTLTGHTFWVRSVAISPDGVNIASGSFDKTVKIWNLETGTLTHTLAGNGETVTSIAFNPDGNTLASASRDRTIKIWKVGAGTRVRTLKGSTETITSIAFSPDGNTLASASRDQTIKLWNLETGKEIRTLEGHENTVTTVAFTPDGANLVSGSGDNTMRIWRIGN” was “failed”; that for “MICKKLIQTILLGFAMCFYLLLGAGLNPTLAATLTQVESISQPRMQTLSEPRNLESGVDSFLTSIPAGYYTIATVEELKSLLKKSQPMLVDVREASEYRAGHIPNAINIPLRTLSQNLNQIPRTRPVVLYCSSGYRSAMGVMTLHLLGYENVQGFPPSFAGWKNAKEAMTYGRSKTIAS” was “failed”.
In the case of “MICVYTEDRWADILAAVASVRAQSRPARETLLVVDHHQTLLERLSREYKEVPEVRVLANAGPRGLSAGRNTGIAASHGEIIAFLDDDAVAERDWLRHFAEGYEDPRVMAVGGRTMPIWASGRRPAWFPEEFDWVVGCTYKGLPPGRVRVRNVLGGNASFRRTAFDAAGGFATGIGRDGDKRPLGCEETELCIRLTRARPDAILLIDDRAVIHHRVPEPREHFAYFRTRTYAEGLSKALVARSVGAGKGLESERRYTTRVLPAGVARGLRDAALARPGGAGRAGAIVAGVLTAAGGYVLGSVRARRGGATFSVVEPPDSEGEAA”, the protein production result was “failed”.
The value for “MIDDLLNFFNSFNVVKNYKLINQLKNEVDTLKSRLDIPRELLDGFYADRNSREYREVYEKDAPLVTVCIGTYNRGKLLVERSVRSVLEQSYGNIELIVVGDCCTDDTPRLVQGITDPRFRFINLPERGNYPENPLHRWCVAGTVPFNYALSQARGDFITHLDDDDEFVPDRIEKLVKFIQREKADLVWHPFWYERSNGRWAMRKAQEFSGGKVTTSSIFYHRWFTAVPWDIEAYRYQEPGDWNRLRKIKYLGARVARYPEPLLRHYCERNQESLSSRTIQTRNTKLEHHHHHH” was “failed”; that for “MIDFTKSKQYTLSIRLSTDGFSFSIYNPINDNSQSLFEKEVDTSLSLTANLKNVFHESDFLSYSYKRVNIMIASKRFTMIPLELFEEEQAELLFYHNHQKRENEIVMYNILKKNNVVIIFGIDKSTYTFLNEQYPEARFYSQSTPLIEYFSIKSRLGNSKKMYASVRKDAIDIYCFERGQLLLANSFECMQTEDRIYYLLYVWKQLEFNQERDELHLTGTLSDKETLMNELKKFILQVFIMNPANNIDMQALLTCE” was “not failed”; that for “MIDILNLALPYFGLIFVGFACGRWKKLPEQGLVWMNFFLVFVSLPALFFRIMSKTPFEELNNLPFVLATTLATAIAFFLSGMLGRLIGKLSMREATMAALSGGYGNIGYMGPGLALAVLGTQAAAPTALIFCFDTIFLFSIVPLGMALTAADKRPLIPTIIAVLREILFHPLIVAAYCGAAAAAFHVELPVAVDKMLAFLQNAAAPVALFTLGVTVALRPFGRVPWEIPSLVAVKLLLHPVIVFCLVLAFGPFSPEWAATAVLMASLPPALNVFVIARQYNTWVEPASVAVLIGTFMSVVTLTTVMWLIRTGQIPFPA” was “failed”.
With “MIDILPLLDWHHFVYFAIPAVLLLIVSALFALYQRRVWAICIAIAAACVLMFFIGGMWHSLERPPLRTMGETRLWYSFFVIIAGLIIYIRWKYRWILSFATVLSTVFMIINIAKPDIHNKTLMPALESPFFVPHVISYIFAYAMLGAALLVGGYFLFCKRKHKEVNAKVMMHTTDNLVYTGFAFLMTGLLLGAIWAKLAWGTYWNWDPKETWAAITVFSYLLYIHHRLHRPRAFAHSLVLLIVSFLFLQICWYGVNYLPSAKDSSIHTYTR” the entry was “failed”; with “MIDKQSGIPIYIQIQSEIKKKMEDGVWKVGTSIPAERQLAEMFHVSRMTVRQAIQGLVDDNILQRRVGAGTFIAEKKLTERLEAVTSFTNLMLQEGKVPSTRIVSYGIRPASTQEQEALQLPENSNVMKIERIRYGDRVPILYEVAAIPEKIASLLTKEDIMDSLYKAIELKLGQPIGEAEQIMEASLVSEKIAPYLDVKLGSPVMKLRQITTLEDGRPFEFTRSQYVGSRFQFVARIKQ”, “failed”.

For the origin of these results see a protein production outcome set (Wang et al. 2014).
